Measurements: the supplement of paper PMC10567573
± gives the standard deviation.

Assay: protein stability index of a GFP-peptide fusion (GPS, HEK-293T) (PSI 1-6); higher = more stable
[1] = treatment: DMSO, c terminus: a fixed tail appended
[2] = treatment: MLN4924 1 uM, 8 h, c terminus: a fixed tail appended
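Also: 24-mer peptide tiles fused after GFP, lentivirally expressed, FACS-sorted into six equal bins by GFP/DsRed ratio, decoded by Illumina sequencing, PSI is the read-weighted mean bin number.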

Sequence | protein stability index [1] | protein stability index [2] | protein stability index (treatment: DMSO, c terminus: native) | protein stability index (treatment: MLN4924 1 uM, 8 h, c terminus: native)
ILHIPQVTKLCVQFLNDQISVQNY [KLHL14] | 2.54 ± 0.45 | 2.51 ± 0.52 | – | –
ILREIRHPNIITLHDIFENKTDVV [DAPK3] | 2.47 ± 0.21 | 2.54 ± 0.2 | – | –
ILRLPLEHACTVRNLARSQSVKMK [TAF7L] | 2.92 ± 0.18 | 3.19 ± 0.34 | – | –
IPAAVLAGFTGSGPIQLWQFLLEL [ETS2] | 2.69 ± 0.62 | 2.5 ± 0.25 | – | –
IPQGICPVGRSWHSLTPVSSDHLF [KLHDC2] | 2.68 ± 0.28 | 2.52 ± 0.21 | – | –
IQLIKTNKKHIHSRSTLECAYRTH [SMG5] | 2.38 ± 0.096 | 2.54 ± 0.1 | – | –
IQWKNHDQNNHNTDRSSHKDSMN [EDNRA] | – | – | 5.36 ± 0.29 | 5.49 ± 0.23
IRISMSHEEEPLGTAGPLALARDL [GMPPB] | 3 ± 0.053 | 3.27 ± 0.34 | – | –
IRRPVNVPIDIFSEEIRFYQLGEE [KCNA3] | 2.59 ± 0.56 | 2.75 ± 0.37 | – | –
ITCSSTMSYSCCLPSLGCRTSCSS [KRT34] | 2.19 ± 0.16 | 2.1 ± 0.32 | – | –
ITHSTYSLPASSYSQDPVYANGGL [NOL4L] | 2.96 ± 0.32 | 3.18 ± 0.2 | – | –
ITIEPGTSYRLQGLKPNSLYYFRL [PTPRD] | 2.63 ± 0.12 | 2.61 ± 0.43 | – | –
IVFPEKLNGSVLPGSGAPARLLCR [ADAMTS4] | 2.87 ± 0.26 | 2.59 ± 0.4 | – | –
IWFRVPYSIISLLLKDKVRERIQI [PTPN9] | 2.56 ± 0.65 | 2.77 ± 1.5 | – | –
IYSVVDLGMYQKVTSYCRSATLVG [SLC19A2] | 2.69 ± 0.42 | 2.74 ± 0.69 | – | –
IYVIGDLDTGTNYDYVREFKRSTG [GAN] | 2.18 ± 0.43 | 2.04 ± 0.43 | – | –
IYVVGGYSWNNRCMVEIVQKYDPD [KLHL13] | 2.99 ± 1.6 | 2.91 ± 1.3 | – | –
KCKSTLSPPEASPGPPAAPRARRR [PWWP2B] | 5.19 ± 0.12 | 5.34 ± 0.26 | – | –
KCLLYCNGVLEPLYLCPNGARCAT [SLC25A39] | 2.24 ± 0.11 | 2.11 ± 0.27 | – | –
KDAAKQIAWIKDKLLHIYYQNSID [PDS5B] | 1.78 ± 0.31 | 2.39 ± 0.26 | – | –
KDEPSKYNQQQALIDQRYFQVLCS [CEP70] | 3 ± 0.063 | 3.13 ± 0.24 | – | –
KDGVTMAPAFRLSLKAKVSDNMSH [FSD1] | 3.56 ± 0.35 | 3.75 ± 0.26 | – | –

Sequence | protein stability index [1] | protein stability index [2] | protein stability index (treatment: DMSO, c terminus: native) | protein stability index (treatment: MLN4924 1 uM, 8 h, c terminus: native)
KDIQPYMRRMVATWMLEVCEEQKC [CCND2] | 2.33 ± 0.24 | 2.65 ± 0.3 | – | –
KDIVQTVRSRLEEAGIKVHDVRLN [TENT5C] | 2.44 ± 0.35 | 2.78 ± 0.28 | – | –
KDPSAIGKKQVPCFASMLTKKLHF [CASP6] | 2.23 ± 0.14 | 2.36 ± 0.16 | – | –
KDTDLARVRRFQVVEVTKGILEHV [M1AP] | 2.55 ± 0.47 | 2.86 ± 0.56 | – | –
KEDQFGRTPLMYCVLADRLDCADA [INVS] | 3.12 ± 0.41 | 3.26 ± 0.3 | – | –
KEGGQAGSGQRVPALEEAPDSHQK [ELOA2] | 5.32 ± 0.21 | 5.47 ± 0.28 | – | –
KELRKDYQGPGTRRLQEVLGVQTG [DYRK1B] | 4.07 ± 0.16 | 4.42 ± 0.17 | – | –
KEYEKALKYVRGLLQTEPQNNQAK [FIS1] | 2.86 ± 0.14 | 3 ± 0.45 | – | –
KGCKVTLPEKPVKLASHTRDTTGV [FBF1] | 4.21 ± 0.24 | 4.58 ± 0.17 | – | –
KGKKLYPVVSAVWGHCEVTMRYIN [SPSB4] | 2.43 ± 0.82 | 2.65 ± 0.6 | – | –
KGRTIYLEDIYVMPEYRGQGIGSK [SAT2] | 2.44 ± 0.31 | 2.79 ± 0.12 | – | –
KHLARQLEEKDRVLKKQDAFYKEQ [CHCHD3] | 4.33 ± 0.2 | 4.57 ± 0.24 | – | –
KHRIRRVLIVDWDVHHGQGTQFTF [HDAC6] | 3.35 ± 0.42 | 3.14 ± 0.83 | – | –
KICESLNVPVDDSLVKELLRMCSH [EFHC1] | 2.11 ± 0.21 | 2.09 ± 0.44 | – | –
KIEGHQDAVTAALLIPKEDGVITA [WDFY1] | 4.35 ± 0.23 | 4.4 ± 0.28 | – | –
KIMGVEEEDDDDDDDDNLPQLKKE [ANKRD40] | 5.6 ± 0.24 | 5.46 ± 0.19 | – | –
KKHGTQNKRAALQALKRKKRFEKQ [CHMP4C] | 4.52 ± 0.3 | 4.52 ± 0.19 | – | –
KLAKVYSYAHGWMFQGWNCGDYFP [CPN1] | 2.52 ± 0.43 | 2.52 ± 0.38 | – | –
KLFYFKIWAFLDVSFVERILKSQK [FBXO39] | 2.62 ± 0.74 | 2.47 ± 0.5 | – | –
KLSCLFAGPHSTLTPPCSPPEDGL [SNX8] | 3.25 ± 0.18 | 3.19 ± 0.4 | – | –
KNFFKKAAAALFGGKKDKARYIDT [PLK2] | 1.95 ± 0.33 | 2.4 ± 0.63 | – | –
KNRSFDIDAIYSVIDDAKQYVYIA [PLD5] | 2.75 ± 0.55 | 2.47 ± 0.71 | – | –

Sequence | protein stability index [1] | protein stability index [2] | protein stability index (treatment: DMSO, c terminus: native) | protein stability index (treatment: MLN4924 1 uM, 8 h, c terminus: native)
KPVDMWACGVILYILLVGYPPFWD [CAMK2D] | 3.46 ± 0.29 | 3.36 ± 0.41 | – | –
KPYGCVECGKAFSRSSILVQHQRV [ZNF24] | 2.07 ± 0.17 | 2.11 ± 0.2 | – | –
KQIIRKHAQTFVALCATDVKFISN [CCND1] | 2.26 ± 0.1 | 2.39 ± 0.055 | – | –
KQLVSPAAALLSNTTCQTENRLSV [PTGFR] | 3.74 ± 0.25 | 3.99 ± 0.2 | – | –
KQNPGKFCLLSCGILTFLAVLGRY [RETREG3] | 2.33 ± 0.55 | 2.54 ± 0.37 | – | –
KQNPSRQEVTKLQQQVKTNGAGVT [FBXO28] | 4.68 ± 0.2 | 4.47 ± 0.35 | – | –
KRTIIPTLVEAIKEQDGREVDWEY [DFFB] | 4.14 ± 0.11 | 4.36 ± 0.42 | – | –
KSMHREELEKSGHGQAGQRQDPRP [ZBED2] | 5.21 ± 0.13 | 5.2 ± 0.3 | – | –
KSNQPKSLEDLIFESLPENASHKL [ATE1] | 4.28 ± 0.21 | 4.5 ± 0.14 | – | –
KSSKYGEGHQAWIVGIVEKGNRTA [SEPHS2] | 2.56 ± 0.19 | 2.56 ± 0.42 | – | –
KSSVYRRYNDFVVFQEMLLHKFPY [SNX8] | 2.45 ± 0.65 | 2.24 ± 0.39 | – | –
KSVLIPVYGVSKETFLSFLEYLYT [RHOBTB3] | 2.24 ± 0.38 | 2.22 ± 0.15 | – | –
KSVMLQIAATELEKEESRREAEKQ [TNNI2] | 5.07 ± 0.092 | 5.25 ± 0.26 | – | –
KVHTVPKPGKGADLSKPPCRKAKE [ATE1] | 4.94 ± 0.24 | 5.125 ± 0.046 | – | –
KVRQLERDNAELEKLIQERSQQQE [KRT34] | 5.17 ± 0.22 | 5.28 ± 0.24 | – | –
KYSLLKLTALLEKYTPSNKHGFSW [DLC1] | 2.65 ± 0.42 | 2.6 ± 0.61 | – | –
LAGLTRPDVRPPLGRGLVGGQEEA [SEPHS2] | 4.86 ± 0.094 | 4.92 ± 0.083 | – | –
LALGVSLLCNAITGITLLRVKFKS [PTGFR] | 2.88 ± 0.48 | 2.73 ± 0.37 | – | –
LATQSLTVETCRALGKLLPRETLC [LRRC45] | 2.44 ± 0.49 | 2.48 ± 0.45 | – | –
LCWDPVQRVLFSGSSDHSVIMWDI [WDFY2] | 2.26 ± 0.34 | 1.93 ± 0.45 | – | –
LDKLNFEAINFCRGLGSQASTVTE [ACSBG2] | 3.36 ± 0.5 | 3.71 ± 0.24 | – | –
